Source: US20240076396A1 (Regeneron, published 2024)

Key:
[1] = biological target: T1, human GITR expressed on the cell surface (human, UniProt Q9Y5U5 26-241); experiment: cell-based or functional assay
T1 sequence: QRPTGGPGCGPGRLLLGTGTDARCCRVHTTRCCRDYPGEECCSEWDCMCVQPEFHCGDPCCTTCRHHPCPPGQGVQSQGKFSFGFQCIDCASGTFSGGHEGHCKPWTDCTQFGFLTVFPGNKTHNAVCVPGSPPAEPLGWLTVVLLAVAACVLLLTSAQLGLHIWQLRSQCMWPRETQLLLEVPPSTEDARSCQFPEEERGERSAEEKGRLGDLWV

[2] = biological target: T2, cynomolgus monkey GITR expressed on the cell surface (Macaca fascicularis (cynomolgus monkey)); experiment: cell-based or functional assay
[3] = biological target: T1, human GITR expressed on the cell surface; experiment: cell-based or functional assay; remark: listed apart in the source
[4] = biological target: T2, cynomolgus monkey GITR expressed on the …; experiment: cell-based or functional assay; remark: listed apart in the source
[5] = biological target: T3, Jurkat/hCD20 cells (human CD20, no GITR; negative control cell line) (human, UniProt P11836 1-297); experiment: flow cytometry on Jurkat/hCD20 cells
T3 construct: whole, on cells; Control cell line without engineered GITR; the only named engineered protein on it is hCD20
T3 sequence (looked up): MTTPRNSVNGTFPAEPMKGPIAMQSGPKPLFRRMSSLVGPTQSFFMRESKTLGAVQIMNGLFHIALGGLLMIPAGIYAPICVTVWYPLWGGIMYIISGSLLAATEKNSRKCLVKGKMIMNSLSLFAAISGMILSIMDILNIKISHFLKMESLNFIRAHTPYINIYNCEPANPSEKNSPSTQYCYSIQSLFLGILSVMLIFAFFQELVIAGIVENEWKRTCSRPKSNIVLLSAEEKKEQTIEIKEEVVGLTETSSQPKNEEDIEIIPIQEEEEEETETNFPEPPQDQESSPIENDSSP
Procedure: FIG. 5A, FIG. 5B, and FIG. 5C depict cell-surface binding of mAb1 and IgG1 isotype control at a range of concentrations (18 pM to 300 nM) on Jurkat/hCD20 (FIG. 5A), Jurkat/hCD20/hGITR (FIG. 5B), and Jurkat/hCD20/MfGITR (FIG. 5C) cells. Binding was detected using an Alexa647-labeled anti-human IgG by flow cytometry. Fluorescence intensity was plotted as geometric MFI. h, Human; Mf, Macaca fascicularis (cynomolgus monkey).
Flow cytometry was used to evaluate mAb1 binding to Jurkat/hCD20/hGITR cells and Jurkat/hCD20/MfGITR cells. Jurkat/hCD20 cells were used as a negative control cell line for GITR binding. Cells were added to a 96-well V-bottom plate (2×10⁵ to 4×10⁵ cells/well) and incubated in Fc block solution, followed by successive incubation on ice with primary antibody (mAb1 or IgG1 isotype control) at final concentrations ranging from 18 pM to 300 nM and a secondary antibody (AF647-conjugated anti-human IgG) at 5 μg/mL. […] Data were analyzed with Flow.lo software. For EC₅₀ (effective concentration at 50% activity) determinations, measured geometric MFI values were analyzed using a 4-parameter logistic equation over a 9-point response curve with GraphPad Prism. The fold binding was determined by taking the ratio of the highest MFI on the curve to the MFI of the wells containing secondary antibody only.

[6] = biological target: T2, cynomolgus monkey GITR expressed on the …; experiment: flow cytometry, AF647-conjugated antibody on CD4+ CD69+ cynomolgus monkey primary T cells, donor 58945
Procedure: FIG. 7 depicts antibody binding to CD69+ cynomolgus monkey primary T-cells. Primary cynomolgus monkey T-cells from 4 separate donors were stimulated in vitro with anti-CD2/anti-CD3/anti-CD28-coated beads. Cell-surface binding of AF647-conjugated mAb1 and AF647-conjugated IgG1 isotype control at a range of concentrations (8 pM to 200 nM) on CD69⁺ and CD69⁻ cynomolgus monkey primary CD4⁺ and CD8⁺ T-cells was detected using flow cytometry. Fluorescence intensity was plotted as geometric MFI. Mf, Macaca fascicularis (cynomolgus monkey)
Peripheral blood mononuclear cells (PBMC) were isolated from human or cynomolgus monkey whole blood (4 donors each) using density centrifugation through Ficoll-Paque PLUS in SepMate tubes (for human PBMC) or 50 mL conical tubes (for cynomolgus monkey PBMC) and transferred to a fresh conical tube for incubation in Red Blood Cell (RBC) Lysis Buffer. […] After 4 days, activation beads were removed from the culture using a MACSiMAG Separator, and cells were collected and counted.
Flow cytometry was used to evaluate mAb1 binding to human or cynomolgus monkey T-cells in activated PBMC. […] Data were analyzed with Flowio software. For EC₅₀ determinations, measured geometric MFI values were analyzed using a 4-parameter logistic equation over a 12-point response curve with GraphPad Prism.

B1: mAb1 (antibody, human IgG1, kappa, V domains shown)
VH: QVQLQESGPGLVKPSETLSLTCIVSGGSISGYFWNWIRQPPGKGLEWIGYIYYSGTTIYNPSLKSRFTISLDTSKNQFSLKLTSVTAADTAVYYCARESYDPSPRYFDHWGQGTLVTVSS
VL: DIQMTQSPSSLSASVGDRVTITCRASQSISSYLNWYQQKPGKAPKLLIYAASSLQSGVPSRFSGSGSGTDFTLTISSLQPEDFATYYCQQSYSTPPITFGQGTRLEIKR
notes: Human IgG1; N101D variant of CompAb1; also called N101D Variant; N101D
- EC50, ADCC against Jurkat/hCD20/hGITR, Donor 6500V NK cells [1]: 0.0122 nM
- EC50, ADCC against Jurkat/hCD20/hGITR, Donor 6700R NK cells [1]: 0.013 nM
- EC50, ADCC against Jurkat/hCD20/MfGITR, Donor 6500V NK cells [2]: 0.0108 nM
- EC50, ADCC against Jurkat/hCD20/MfGITR, Donor 6700R NK cells [2]: 0.0121 nM
- Fold Change in Activity, ADCP of Jurkat/hCD20/hGITR [3]: 5.92 fold
- EC50, ADCP of Jurkat/hCD20/MfGITR [4]: 0.51 nM
- Fold Change in Activity, ADCP of Jurkat/hCD20/MfGITR [4]: 6.98 fold
- binding result [5]: no binding (tested: 18 pM to 300 nM)
- EC50 (read off the curve) [6]: ~4 nM
